The labels stand for the following.
B1: Ac*-F-V-N-T-T-A-(N-Me)F-B-(N-Me)A-Q-A-P-C*-G-NH2 (peptide)
peptide: {CH2CO}-FVNTTA[NMeF][Bip][NMeA]QAPCG-NH2
modifications: thioether N-13
SMILES: CC(C)[C@@H]1NC(=O)[C@H](Cc2ccccc2)NC(=O)CSC[C@@H](C(=O)NCC(N)=O)NC(=O)[C@@H]2CCCN2C(=O)[C@H](C)NC(=O)[C@H](CCC(N)=O)NC(=O)[C@H](C)N(C)C(=O)[C@H](Cc2ccc(-c3ccccc3)cc2)NC(=O)[C@H](Cc2ccccc2)N(C)C(=O)[C@H](C)NC(=O)[C@H]([C@@H](C)O)NC(=O)[C@H]([C@@H](C)O)NC(=O)[C@H](CC(N)=O)NC1=O
notes: also called 1-18; Ex. No. 1-18
B2: Ac*-F-V-S-T-T-F-(N-Me)A-B-(N-Me)A-E-A-P-C*-G-NH2 (peptide)
peptide: FVSTTFAXAEAPCG
modifications: not fully specified; N-terminal acetyl (Ac*) joined by a sulfide bond to the side chain of Cys13 (cyclic); 7: L-(N-Me)Ala; 8: L-Bip; 9: L-(N-Me)Ala; C-terminal amide (NH2)
notes: also called 1-24; Ex. No. 1-24
B3: Ac*-F-V-S-T-T-B-(N-Me)A-B-(N-Me)A-D-R-P-C*-NH2 (peptide)
peptide: {CH2CO}-FVSTT[Bip][NMeA][Bip][NMeA]DRPC-NH2
modifications: thioether N-13
SMILES: CC(C)[C@@H]1NC(=O)[C@H](Cc2ccccc2)NC(=O)CSC[C@@H](C(N)=O)NC(=O)[C@@H]2CCCN2C(=O)[C@H](CCCNC(=N)N)NC(=O)[C@H](CC(=O)O)NC(=O)[C@H](C)N(C)C(=O)[C@H](Cc2ccc(-c3ccccc3)cc2)NC(=O)[C@H](C)N(C)C(=O)[C@H](Cc2ccc(-c3ccccc3)cc2)NC(=O)[C@H]([C@@H](C)O)NC(=O)[C@H]([C@@H](C)O)NC(=O)[C@H](CO)NC1=O
notes: also called 2-4; Ex. No. 2-4
B4: Ac*-F-V-A-T-T-F-(N-Me)A-B-(N-Me)A-K-A-P-C*-G-NH2 (peptide)
peptide: {CH2CO}-FVATTF[NMeA][Bip][NMeA]KAPCG-NH2
modifications: thioether N-13
SMILES: CC(C)[C@@H]1NC(=O)[C@H](Cc2ccccc2)NC(=O)CSC[C@@H](C(=O)NCC(N)=O)NC(=O)[C@@H]2CCCN2C(=O)[C@H](C)NC(=O)[C@H](CCCCN)NC(=O)[C@H](C)N(C)C(=O)[C@H](Cc2ccc(-c3ccccc3)cc2)NC(=O)[C@H](C)N(C)C(=O)[C@H](Cc2ccccc2)NC(=O)[C@H]([C@@H](C)O)NC(=O)[C@H]([C@@H](C)O)NC(=O)[C@H](C)NC1=O
notes: also called 1-22; Ex. No. 1-22
B5: Ac*-F-V-N-T-T-F-(N-Me)A-B-(N-Me)A-K-A-P-C*-G-NH2 (peptide)
peptide: {CH2CO}-FVNTTF[NMeA][Bip][NMeA]KAPCG-NH2
modifications: thioether N-13
SMILES: CC(C)[C@@H]1NC(=O)[C@H](Cc2ccccc2)NC(=O)CSC[C@@H](C(=O)NCC(N)=O)NC(=O)[C@@H]2CCCN2C(=O)[C@H](C)NC(=O)[C@H](CCCCN)NC(=O)[C@H](C)N(C)C(=O)[C@H](Cc2ccc(-c3ccccc3)cc2)NC(=O)[C@H](C)N(C)C(=O)[C@H](Cc2ccccc2)NC(=O)[C@H]([C@@H](C)O)NC(=O)[C@H]([C@@H](C)O)NC(=O)[C@H](CC(N)=O)NC1=O
notes: also called 1-23; Ex. No. 1-23
B6: Ac*-F-V-HomoSer-T-T-F-(N-Me)A-(p-Cl)F-(N-Me)A-D-A-P-C*-NH2 (peptide)
peptide: {CH2CO}-FV[hSer]TTF[NMeA][Phe(4-Cl)][NMeA]DAPC-NH2
modifications: thioether N-13
SMILES: CC(C)[C@@H]1NC(=O)[C@H](Cc2ccccc2)NC(=O)CSC[C@@H](C(N)=O)NC(=O)[C@@H]2CCCN2C(=O)[C@H](C)NC(=O)[C@H](CC(=O)O)NC(=O)[C@H](C)N(C)C(=O)[C@H](Cc2ccc(Cl)cc2)NC(=O)[C@H](C)N(C)C(=O)[C@H](Cc2ccccc2)NC(=O)[C@H]([C@@H](C)O)NC(=O)[C@H]([C@@H](C)O)NC(=O)[C@H](CCO)NC1=O
notes: also called 2-3; Ex. No. 2-3
B7: Ac*-F-E-N-T-T-F-(N-Me)A-B-(N-Me)A-A-S-P-C*-G-NH2 (peptide)
peptide: {CH2CO}-FENTTF[NMeA][Bip][NMeA]ASPCG-NH2
modifications: thioether N-13
SMILES: C[C@@H]1NC(=O)[C@H](C)N(C)C(=O)[C@H](Cc2ccc(-c3ccccc3)cc2)NC(=O)[C@H](C)N(C)C(=O)[C@H](Cc2ccccc2)NC(=O)[C@H]([C@@H](C)O)NC(=O)[C@H]([C@@H](C)O)NC(=O)[C@H](CC(N)=O)NC(=O)[C@H](CCC(=O)O)NC(=O)[C@H](Cc2ccccc2)NC(=O)CSC[C@@H](C(=O)NCC(N)=O)NC(=O)[C@@H]2CCCN2C(=O)[C@H](CO)NC1=O
notes: also called 1-27; Ex. No. 1-27
B8: Ac*-F-V-D-T-T-A-(N-Me)F-B-(N-Me)A-E-A-P-C*-G-NH2 (peptide)
peptide: {CH2CO}-FVDTTA[NMeF][Bip][NMeA]EAPCG-NH2
modifications: thioether N-13
SMILES: CC(C)[C@@H]1NC(=O)[C@H](Cc2ccccc2)NC(=O)CSC[C@@H](C(=O)NCC(N)=O)NC(=O)[C@@H]2CCCN2C(=O)[C@H](C)NC(=O)[C@H](CCC(=O)O)NC(=O)[C@H](C)N(C)C(=O)[C@H](Cc2ccc(-c3ccccc3)cc2)NC(=O)[C@H](Cc2ccccc2)N(C)C(=O)[C@H](C)NC(=O)[C@H]([C@@H](C)O)NC(=O)[C@H]([C@@H](C)O)NC(=O)[C@H](CC(=O)O)NC1=O
notes: also called 1-16; Ex. No. 1-16
B9: Ac*-F-V-P-T-T-A-(N-Me)F-B-(N-Me)A-E-A-P-C*-G-NH2 (peptide)
peptide: {CH2CO}-FVPTTA[NMeF][Bip][NMeA]EAPCG-NH2
modifications: thioether N-13; not fully specified
notes: The three-letter form of the same entry prints L-Arg at position 11 where the one-letter form prints A; also called 1-21; Ex. No. 1-21
B10: Ac*-F-V-D-T-T-F-(N-Me)A-B-(N-Me)A-E-S-P-C*-G-NH2 (peptide)
peptide: {CH2CO}-FVDTTF[NMeA][Bip][NMeA]ESPCG-NH2
modifications: thioether N-13
SMILES: CC(C)[C@@H]1NC(=O)[C@H](Cc2ccccc2)NC(=O)CSC[C@@H](C(=O)NCC(N)=O)NC(=O)[C@@H]2CCCN2C(=O)[C@H](CO)NC(=O)[C@H](CCC(=O)O)NC(=O)[C@H](C)N(C)C(=O)[C@H](Cc2ccc(-c3ccccc3)cc2)NC(=O)[C@H](C)N(C)C(=O)[C@H](Cc2ccccc2)NC(=O)[C@H]([C@@H](C)O)NC(=O)[C@H]([C@@H](C)O)NC(=O)[C@H](CC(=O)O)NC1=O
notes: also called 1-17; Ex. No. 1-17
B11: Ac*-F-V-P-T-T-F-(N-Me)A-B-(N-Me)A-E-A-P-C*-NHEt (peptide)
peptide: {CH2CO}-FVPTTF[NMeA][Bip][NMeA]EAPC-NHEt
modifications: thioether N-13
SMILES: CCNC(=O)[C@@H]1CSCC(=O)N[C@@H](Cc2ccccc2)C(=O)N[C@@H](C(C)C)C(=O)N2CCC[C@H]2C(=O)N[C@@H]([C@@H](C)O)C(=O)N[C@@H]([C@@H](C)O)C(=O)N[C@@H](Cc2ccccc2)C(=O)N(C)[C@@H](C)C(=O)N[C@@H](Cc2ccc(-c3ccccc3)cc2)C(=O)N(C)[C@@H](C)C(=O)N[C@@H](CCC(=O)O)C(=O)N[C@@H](C)C(=O)N2CCC[C@H]2C(=O)N1
notes: also called 3-2; Ex. No. 3-2
B12: Ac*-F-V-P-T-T-F-(N-Me)A-(p-Cl)F-(N-Me)A-D-A-P-C*-NH2 (peptide)
peptide: {CH2CO}-FVPTTF[NMeA][Phe(4-Cl)][NMeA]DAPC-NH2
modifications: thioether N-13
SMILES: CC(C)[C@@H]1NC(=O)[C@H](Cc2ccccc2)NC(=O)CSC[C@@H](C(N)=O)NC(=O)[C@@H]2CCCN2C(=O)[C@H](C)NC(=O)[C@H](CC(=O)O)NC(=O)[C@H](C)N(C)C(=O)[C@H](Cc2ccc(Cl)cc2)NC(=O)[C@H](C)N(C)C(=O)[C@H](Cc2ccccc2)NC(=O)[C@H]([C@@H](C)O)NC(=O)[C@H]([C@@H](C)O)NC(=O)[C@@H]2CCCN2C1=O
notes: also called 2-2; Ex. No. 2-2
B13: Ac*-F-V-P-T-T-V-(N-Me)A-(p-Cl)F-(N-Me)A-E-A-P-C*-NH2 (peptide)
peptide: {CH2CO}-FVPTTV[NMeA][Phe(4-Cl)][NMeA]EAPC-NH2
modifications: thioether N-13
SMILES: CC(C)[C@@H]1NC(=O)[C@H]([C@@H](C)O)NC(=O)[C@H]([C@@H](C)O)NC(=O)[C@@H]2CCCN2C(=O)[C@H](C(C)C)NC(=O)[C@H](Cc2ccccc2)NC(=O)CSC[C@@H](C(N)=O)NC(=O)[C@@H]2CCCN2C(=O)[C@H](C)NC(=O)[C@H](CCC(=O)O)NC(=O)[C@H](C)N(C)C(=O)[C@H](Cc2ccc(Cl)cc2)NC(=O)[C@H](C)N(C)C1=O
notes: also called 2-6; Ex. No. 2-6
B14: Ac*-F-V-N-T-T-F-(N-Me)A-B-(N-Me)A-(N-Me)E-A-P-C*-NHEt (peptide)
peptide: {CH2CO}-FVNTTF[NMeA][Bip][NMeA][NMeE]APC-NHEt
modifications: thioether N-13
SMILES: CCNC(=O)[C@@H]1CSCC(=O)N[C@@H](Cc2ccccc2)C(=O)N[C@@H](C(C)C)C(=O)N[C@@H](CC(N)=O)C(=O)N[C@@H]([C@@H](C)O)C(=O)N[C@@H]([C@@H](C)O)C(=O)N[C@@H](Cc2ccccc2)C(=O)N(C)[C@@H](C)C(=O)N[C@@H](Cc2ccc(-c3ccccc3)cc2)C(=O)N(C)[C@@H](C)C(=O)N(C)[C@@H](CCC(=O)O)C(=O)N[C@@H](C)C(=O)N2CCC[C@H]2C(=O)N1
notes: also called 3-1; Ex. No. 3-1
B15: Ac*-F-V-P-T-T-F-(N-Me)A-(p-Cl)F-(N-Me)A-P-A-P-C*-NH2 (peptide)
peptide: {CH2CO}-FVPTTF[NMeA][Phe(4-Cl)][NMeA]PAPC-NH2
modifications: thioether N-13
SMILES: CC(C)[C@@H]1NC(=O)[C@H](Cc2ccccc2)NC(=O)CSC[C@@H](C(N)=O)NC(=O)[C@@H]2CCCN2C(=O)[C@H](C)NC(=O)[C@@H]2CCCN2C(=O)[C@H](C)N(C)C(=O)[C@H](Cc2ccc(Cl)cc2)NC(=O)[C@H](C)N(C)C(=O)[C@H](Cc2ccccc2)NC(=O)[C@H]([C@@H](C)O)NC(=O)[C@H]([C@@H](C)O)NC(=O)[C@@H]2CCCN2C1=O
notes: also called 2-1; Ex. No. 2-1

Bridge positions count the residues as written; N and C are the ends. Square brackets hold non-standard residues; d marks the D form. Bip = N[C@@H](Cc1ccc(-c2ccccc2)cc1)C(=O)O; Phe(4-Cl) = N[C@@H](Cc1ccc(Cl)cc1)C(=O)O; NMeF = CN[C@@H](Cc1ccccc1)C(=O)O; NMeE = CN[C@@H](CCC(=O)O)C(=O)O; hSer = N[C@@H](CCO)C(=O)O; NMeA = CN[C@@H](C)C(=O)O

For this assay, the target named is T1, Human PCSK9 Alexa Fluor 647 (human, UniProt Q8NBP7 31-692, limits assumed, Alexa Fluor 647 label (site not stated)).
T1 construct: Labelled tracer of the TR-FRET assay, 16 nM stock; also called proprotein convertase subtilisin/kexin type 9
T1 sequence (Q8NBP7 31-692 limits assumed): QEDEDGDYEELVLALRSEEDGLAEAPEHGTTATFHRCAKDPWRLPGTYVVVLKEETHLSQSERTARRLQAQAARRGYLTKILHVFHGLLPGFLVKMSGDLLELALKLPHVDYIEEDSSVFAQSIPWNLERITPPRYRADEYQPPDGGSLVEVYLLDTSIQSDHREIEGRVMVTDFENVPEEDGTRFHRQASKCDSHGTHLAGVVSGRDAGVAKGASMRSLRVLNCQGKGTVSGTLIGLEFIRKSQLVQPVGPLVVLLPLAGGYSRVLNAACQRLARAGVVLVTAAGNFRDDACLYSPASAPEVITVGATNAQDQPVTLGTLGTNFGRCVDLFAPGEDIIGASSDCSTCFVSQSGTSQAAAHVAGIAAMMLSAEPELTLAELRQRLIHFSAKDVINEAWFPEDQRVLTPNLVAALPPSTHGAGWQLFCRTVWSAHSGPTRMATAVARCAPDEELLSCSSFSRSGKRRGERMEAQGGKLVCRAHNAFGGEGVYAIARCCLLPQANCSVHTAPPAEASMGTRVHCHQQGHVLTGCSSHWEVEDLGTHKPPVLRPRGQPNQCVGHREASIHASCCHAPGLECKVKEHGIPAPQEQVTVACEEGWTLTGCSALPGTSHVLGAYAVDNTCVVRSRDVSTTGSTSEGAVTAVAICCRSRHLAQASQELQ
The experiment in a line: TR-FRET competition: PCSK9-Alexa Fluor 647 vs LDLR ECD-Eu kryptate. The protocol: A Proxi plate-low volume assay plate was used for the assay. […] Following a 30 minute incubation, 5 uL of 4 nM Human LDLR extracellular domain-Europium Kryptate was added and the mixture was incubated for an additional 2 hours.
The TR-FRET signal was measured on an EnVision or PheraStar instrument with a 60 μs delay, 330 nm excitation and 665 nm emission (FRET), and 330 nm excitation and 615 nm (Europium). The FRET ratio (FRET/Europium) was used for calculations.
(In general: TR-FRET usually uses a lanthanide donor and a delayed reading to cut background.)
With B1, the IC50 was determined as 11 nM and the Maximum % inhibition was 53%.

Molecule B2 had an IC50 of 6.8 nM and a Maximum % inhibition of 70%.

In the case of B3, the 50% inhibitory concentration (IC50) amounted to 1.8 nM and the Maximum % inhibition was 28%.

In turn, B4 registered a concentration for half-maximal inhibition (IC50) of 12 nM and a Maximum % inhibition of 49%.

Molecule B5 registered a half-maximal inhibitory concentration (IC50) of 22 nM and a Maximum % inhibition of 36%.

B6 registered an IC50 of 0.04 nM and a Maximum % inhibition of 75%.

B7 came in with an IC50 of 410 nM and a Maximum % inhibition of 55%.

Take B8: the half-inhibitory concentration (IC50) worked out at 7.4 nM and the Maximum % inhibition amounted to 91%.

Regarding B9, the IC50 was determined as 7.2 nM and the Maximum % inhibition is 81%.

B10 yielded an IC50 of 17 nM and a Maximum % inhibition of 91%.

In turn, B11 displayed an IC50 of 4.2 nM and a Maximum % inhibition of 83%.

As for B12, the IC50 came to 0.4 nM and the Maximum % inhibition amounted to 72%.

B13 yielded an IC50 of 5.4 nM and a Maximum % inhibition of 83%.

Turning to B14, the half-maximal inhibitory concentration (IC50) is 85 nM and the Maximum % inhibition was found to be 61%.

Turning to B15, the half-maximal inhibitory concentration (IC50) is 11.5 nM and the Maximum % inhibition was 50%.

As usually defined, the IC50 is the concentration that inhibits the measured activity by half. Read a high IC50 as lower potency.

For the origin of these results see patent US20220024981A1 (Novartis, published 2022).
